Data on one substance can be found in patent US20220316002.

The series addresses thiolated streptavidin (ProteinMods) (UniProt P22629).
UniProt P22629, sequence (P22629 whole entry, looked up): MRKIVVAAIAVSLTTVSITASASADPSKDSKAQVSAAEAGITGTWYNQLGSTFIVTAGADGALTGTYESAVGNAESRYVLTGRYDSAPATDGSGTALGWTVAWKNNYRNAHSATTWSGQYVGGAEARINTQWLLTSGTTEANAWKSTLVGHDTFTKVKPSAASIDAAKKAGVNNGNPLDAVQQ

On to “Gen II Φ29 DNA polymerase (D12A/D66A, biotinylated Avitag at the N terminus and second Avitag between E279 and D280)”, for which the “highest peak of the single-molecule conductance distribution (STM, 4.5 nm gap)” value is “The 3 nS peak observed in FIG. 14B is now absent”.
